Experiment: soluble on expression in E. coli; label from the status in PepcDB or PDB records

| Sequence | soluble on expression in E. coli |
| --- | --- |
| MGSDKIHHHHHHMKRVISLIDMDCFYAQVEQRDNPSLWGQPVIVVQHSRQGIEGGILAVSYEARPFGVKRGMTVAEAKLKCPQISICHVPIGEYVDKADIQKYRDASAEVFRVLNNYDSQIIIEKASVDEAFLDLSAYTNQKLQELRENEGLEEFLQAAITYLPTTHLATGEDVKENEHLREDVLLEYIENARNCTENLLLLIAAVTVEQIRQQIHEETQFFCSAGVGNNKMMAKLVCARHKPRQQTLIPWFYVREILRLTPIGDVRGFGGKMGNRIQEMLNITVRKRKYSKFQVIFRIFIEKLSEMSEICNFRRFYTIFKYFSLNLEIWKYSKKNQFFLAKKKEILRFSQLKIRKFEFPVTFYPRNPLMGELLEVDISQLIE | not soluble |
| MGSDKIHHHHHHMKSIKAADLHAAVRDMIMDANRVLGKDVYNAFQTCMQQETTDSGKEVLRQLLENADLAAQSGLALCQDTGVAVFFVEMGEEVRMEGGGLKETLNAAMVEAYNKAFLRKSMCHPLTRKNTGDNTPAVIHVELVPGDTLKVRYMAKGGGSENMSRCTMLTPAQGWQGIKDFVVRRMAEAGPNPCPPTIVGVGIGGTFDLAPSLAKGALFRRVDDVHPDPEIAAMEKELLDEINALGIGPMGLGGKTTCLAVKIAMHPCHIASLPLAVNVQCHSSRHKEVVF | not soluble |
| MGSDKIHHHHHHMKSKGSRLSTDCPVEFPKIVSGFAEEVKIRRQSSQGQYAVDSHPPKSPELKHRRQRSSSFVNGKCRNRDLPLLDNKKAQEINTNSHGQDIGIKNLPRQRELLNAKNGIDFTLMVAGQSGLGKTTFINSLFSTSLIDDDIKENKPIIRYKSIVEGDGTHLNFNVIDTPGFGNNMDNAFTWRTMVNYIDEEIRSYIFQEEQPDRTKMVDNRVHCCLYFLRPSNKGIDTLDVVTMKKLAKRVNLIPVIAKSDLLTKEELKNFKTQVREIIRVQDIPVCFFFGDEVLNATQDIFQKYPFSIIASNEYIFNEKGEKVKGRQYKWGAVDIENEKYCDFKILQKTIFDWNLIDLVESTEDYYEKCRSEMLRTRLLKARDCLTTKSVDITEEQRKFLEEEMNFDEIEENKLKNYKCYEIINKTVMDKVATEWDPEFITRQLEAKKKFNELSNREISKFRDWKKSLFMEQENFNQEIEQLNHKLENLQLECQDLEYKLLIGKSSNSHSTDSATLVNVHIKR | not soluble |
| MGSDKIHHHHHHMKSRFLLKIFIFLAVFGVDSVRAADCTEKTFKTGTVCVCSLDSCDEIPPLDITMGQAALYTTSHTGARLHRDVIYATDTEPFGTLHMTIDSSKKYQTIQGFGSTFSDASGANLKSLPDKLSDLIMKQYFSDTGLNLQFGRVPIASTDFSGRVYSYNDVANDYSMQNFNLTKEDFQWKIPYIKNAQKYNPNLKLFAAPWAAPGWLKTTKEMTGPGALNGKAGDNYHQAYAKYFVRFLEEYGKSGISFWGLSTQNQPTLGSDKKNKIQSTLFTAETQRDFIKTDLGPALAASSSGKDVKLLILDDNRGNLPKWADTVLNDMDAAKYVGGIGVHAYQDGETDNHLDETHKKHPNFFILGTEASEGYGSKDTHVDYGNWDRAADTASDILDNMNNWMTGWTERNLILDALGGPSWVSDYTDAPVIAFPAMAQFYKQPMFYAIAHFSHFIKPGAVRIDHSLNVIELEVETTAFLNPDGSKVIVMLNKGSLVSTEHTVVVQDAADSRNHYHFTLPHRAITTLYIQTSQF | not soluble |
| MGSDKIHHHHHHMKTFHLTTQSRDEMVDITSQIETWIRETGVTNGVAIVSSLHTTAGITVNENADPDVKRDMIMRLDEVYPWHHENDRHMEGNTAAHLKTSTVGHAQTLIISEGRLVLGTWQGVYFCEFDGPRTNRKFVVKLLTD | soluble |
| MGSDKIHHHHHHMKTLIKNVHILTMDEQFSEIKAGYLVIEEDTIVELAPMTTLDEKRMAANQVIDGQNGILMPGMINTHTHVGMIPFRSLGDDVPDRLRRFLFPLEQFMTKELVGCSSDYAIAEMLLSGITSFCDMYYFEDEIAKSCEKMSVRALLGETIIDMPTCDSPEPSGGLFYAETFIRKWQGHPLITPMLAPHAPNTNSPEVLAKIIELSRQYQVPVTMHVAEMTYEMAEFEKAYQKTPIAFLEELGYLSEPFILAHCILATDEDLASLAATNGKARVAHCIGANTKSAKGVAPIKQMLDQGIIVGLGTDGPSSGNTLDLFTQMRMVANFHKTAHQDRSLFPAKEIVYLATMGGAKTLGLAEQVGSLEVDKKADITLIETQSVNMFPIFDAYSALVYSANASNVEAVWVNGQQLVANKELQQANLKEIKEKLYQAMNTFVKEAKKRAAL | not soluble |
| MGSDKIHHHHHHMKTTSPSSYDEMLNADGSVRSAYAGYCKWYDEQPPDLLRRKGSEAEAFFRRTGITFNVYGNEDAEERLIPFDMVPRIITAQQWRKLSRGIEQRVRALNAFLHDLYHRQEIVRSGRLPVRLLKGNEAFLPEMVGFTPPGGVYTHIVGIDLVRTGEDDFMVLEDNARTPSGVSYMLENRETMMAMFPELFTRVRVREVSDYPRRLARSLAACAPPACDGKKPVVAVLTPGIYNSAYFEHAFLADQMGAELVEGSDLRVENGRIAMRTTRGYQPIDVLYRRVDDEYLDPLSFNPGSVLGVSGIMDVYRSGGITIANAPGTGIADDKAIYSFMPEIVEFYTGEKPILQNVPTWRCAEPDALAYVLDNLAELVVKEVHGSGGYGMLIGPTSSRKELAAFEAKLRARPENYIAQPTLSLSTVPILTKAGLAPRHVDLRPFVLVSPNGIDITPGGLTRVALKKGSLVVNSSQGGGTKDSWVLDD | not soluble |
| MGSDKIHHHHHHMKTVMLMLTSLLMAGCSVLGKREAAEPPYELLKHDGAFEVRRYGPMVIAETILDEKSYSAASGKGFNRLAGYIFGKNRSKTSISMTAPVLQERSSEKISMTAPVLQQPQKGGWSMAFVLPEGFTLQSAPEPLDPEVKLRELPPSTIAVVTFSGLHSAANLEKYSRQLQAWLKKQGYRALSEPKLASYDPPWTIPFLRRNEVQIRIEPDHGESGKE | not soluble |
| MGSDKIHHHHHHMKVAYLSSAYLAPVEYYSKLLNYDKIFIEQHDHYMKQTYRNRCTIAGPEGELALSIPIVKPEEPKCPMKDIRISDHGNWRHLHWNAIESAYNSTPFFEYYKDDFRPFYEKKYEFLTDFNEELCRLVCELIDIQPAIERTKEYKTDFAPNEIDFREAIHPKKDFHRTDPEFIPQPYYQVFEARYGFLPNLSIIDLLFNMGPESLLILQKTCADSQ | not soluble |
| MGSDKIHHHHHHMKVIIEADGGSRGNPGIAGSGTLIYNADRSQVLKEYSYVVGKATNNVAEYHGLLNGLRGAAELGATEVSVRMDSKLVVEQMSGRWKIKHPDMKELALECKKVASSIGSVSYEWIPRSENSHADALANKAMDALAEGAAVGFLELEEPAAKTDSEEKVVETATSPAVWNGATTQATRFVLLRHGQTAMSAARQYSGRSNPELTSVGLEQARRAAAFIGRRGGIDAIVASPLQRCQQTAHEVSEQLGGMPVRTIDGLIEMDFGQWDGLSFSQAHEADPELHSAWLDDSRTAPPGGESLQQVHRRVKKVREELERKYAGKTIVVVSHVTPIKSILRQALDASASMFHRMHLDLASISVAEFYSDGPTCVRSVNDTHYLYG | not soluble |
| MGSDKIHHHHHHMKVLFTFGGIPHYLNAMLNRLQAKGVEITVVSPKKGNTTIGKGVKMVEGGTYKHLTTPEKKMFYGKSAFPALPEIIAEEKPDIVVVGWPYFLQVFFQPALRKAMKSCNAKLVIREIPFQTPPYGKIKEYFKANPMHDEGMRLLSKGIGFYLRQWITARIRKYCYAQAAGTLNYSTAAYDILPSYGVKKEQIHVTYNSTDTEALLKEKESVLASPSILPPCDRRLLHIGRLVKWKRVDLLIEAFRKVATDYPEAELVIVGDGPELDNLRQQANDLQLADSIRFIGAVYDPKTLGAYMNESSIYVLAGMGGLSINDAMTYGMPVLCAVCDSTERDLVMEGKNGYFFKDGDADSLAGRIREMFESPERCKEMGKESERMIREKINMETVSERYLKAFQEILRLTHLRDSGN | not soluble |
| MGSDKIHHHHHHMKVVFVSYEVFPFAKVGGLADVAGTLPKYLKKHGVDVTIVMPKHRIVEKNAEKFGYEIKKVAESLSVSHVKTDQKFDIYESVLPGSDVKTYFVANDYYFSAEDVYAGPDLGEQAIFFCAATLDLVKHLDLKPDIVHVNDWQTALIPVYLKTVYRDDPYFSRTATVLTIHNLGYQGVFDPKYLSFAGLPDYVYTIDGLEFYGQLNFLKGGIVFSDVINTVSPTYAEEIQTEEYGEKLDGVLRMRSKDLYGILNGIDYELYNPATDRYIYVNYDVNRLELKWENKVKLQEELGLPVNKETAVAGLISRLVPQKGLDLLVDVMDYLTLFDLQIVVLGTGDEQYENAFRKFQERYPDKVSANIKFDVELAQKIYAGADIFLMPSRYEPCGLGQMFSMRYGTIPVVRYTGGLADTVKEYDPQSMEGTGFGFKKYDSAHLLKAVSKALHFYYREKDHWRRIMTNAMNTDLSWDRSAKEYVDLYKKALAKVGR | not soluble |

Source: the DeepSol protein solubility set
